According to patent US20080025968A1 (YEDA RESEARCH AND DEVELOPMENT, published 2008):

T1: NF-κB2/p100, endogenous (human, UniProt Q00653 1-900)
T1 construct: mature
T1 sequence (looked up): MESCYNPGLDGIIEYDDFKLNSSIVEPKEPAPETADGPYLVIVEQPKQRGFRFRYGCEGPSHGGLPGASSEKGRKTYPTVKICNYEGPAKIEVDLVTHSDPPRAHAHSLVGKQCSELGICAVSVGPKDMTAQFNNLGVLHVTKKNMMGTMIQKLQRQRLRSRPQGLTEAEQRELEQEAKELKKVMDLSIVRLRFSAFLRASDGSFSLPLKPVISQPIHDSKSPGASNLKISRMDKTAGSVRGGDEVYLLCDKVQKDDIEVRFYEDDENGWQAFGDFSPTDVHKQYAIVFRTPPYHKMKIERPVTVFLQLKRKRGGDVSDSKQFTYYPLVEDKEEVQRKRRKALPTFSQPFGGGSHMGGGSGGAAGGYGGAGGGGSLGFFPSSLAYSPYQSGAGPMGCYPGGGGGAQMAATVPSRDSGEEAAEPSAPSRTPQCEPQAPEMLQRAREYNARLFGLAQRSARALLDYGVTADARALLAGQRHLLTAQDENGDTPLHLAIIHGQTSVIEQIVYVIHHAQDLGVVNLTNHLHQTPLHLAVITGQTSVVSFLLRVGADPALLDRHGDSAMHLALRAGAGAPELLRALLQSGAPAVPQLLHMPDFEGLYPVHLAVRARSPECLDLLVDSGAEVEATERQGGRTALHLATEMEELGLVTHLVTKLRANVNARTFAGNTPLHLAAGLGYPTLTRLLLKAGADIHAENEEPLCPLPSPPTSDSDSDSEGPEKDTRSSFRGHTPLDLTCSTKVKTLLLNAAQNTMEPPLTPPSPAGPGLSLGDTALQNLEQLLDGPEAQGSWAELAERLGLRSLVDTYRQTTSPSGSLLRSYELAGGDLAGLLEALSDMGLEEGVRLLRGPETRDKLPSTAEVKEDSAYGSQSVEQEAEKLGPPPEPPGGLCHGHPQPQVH

T2: p55 TNF receptor, endogenous in Ramos cells (human, UniProt P19438 30-455)
T2 construct: whole, on cells; TNF-receptor complex precipitated as described by Zhang et al., 2000
T2 sequence (looked up): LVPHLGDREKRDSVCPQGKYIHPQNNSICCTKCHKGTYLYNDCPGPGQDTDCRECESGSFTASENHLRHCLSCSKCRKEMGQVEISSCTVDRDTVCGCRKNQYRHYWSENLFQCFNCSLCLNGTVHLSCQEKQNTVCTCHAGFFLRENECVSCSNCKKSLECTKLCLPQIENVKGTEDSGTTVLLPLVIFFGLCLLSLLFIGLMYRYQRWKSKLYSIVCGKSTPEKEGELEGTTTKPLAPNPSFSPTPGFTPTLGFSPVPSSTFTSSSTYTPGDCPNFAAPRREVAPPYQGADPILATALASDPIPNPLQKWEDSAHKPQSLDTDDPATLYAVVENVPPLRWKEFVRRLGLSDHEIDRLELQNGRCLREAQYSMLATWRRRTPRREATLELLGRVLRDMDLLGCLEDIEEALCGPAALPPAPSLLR

B1: NF-κB2/p52, endogenous (other, human, UniProt Q00653 1-454, looked up)
chain: MESCYNPGLDGIIEYDDFKLNSSIVEPKEPAPETADGPYLVIVEQPKQRGFRFRYGCEGPSHGGLPGASSEKGRKTYPTVKICNYEGPAKIEVDLVTHSDPPRAHAHSLVGKQCSELGICAVSVGPKDMTAQFNNLGVLHVTKKNMMGTMIQKLQRQRLRSRPQGLTEAEQRELEQEAKELKKVMDLSIVRLRFSAFLRASDGSFSLPLKPVISQPIHDSKSPGASNLKISRMDKTAGSVRGGDEVYLLCDKVQKDDIEVRFYEDDENGWQAFGDFSPTDVHKQYAIVFRTPPYHKMKIERPVTVFLQLKRKRGGDVSDSKQFTYYPLVEDKEEVQRKRRKALPTFSQPFGGGSHMGGGSGGAAGGYGGAGGGGSLGFFPSSLAYSPYQSGAGPMGCYPGGGGGAQMAATVPSRDSGEEAAEPSAPSRTPQCEPQAPEMLQRAREYNARLFGLA
B2: C-terminal part of SIVA (amino acids 123-175 in SIVA1 or 58-110 in SIVA2), yeast two-hybrid clone (other)
chain: GKAVCGQCERALCGQCVRTCWGCGSVACTLCGLVDCSDMYEKVLCTSCAMFET
notes: Clone from a human bone marrow two-hybrid library; also called SIVA clone; C-terminal SIVA fragment; not shown: Gal4 fusion partner of the library clone / pGADT7 or pGBKT7 vector; not specified
B3: RelB, endogenous (other, human, UniProt Q01201 1-579, looked up)
chain: MLRSGPASGPSVPTGRAMPSRRVARPPAAPELGALGSPDLSSLSLAVSRSTDELEIIDEYIKENGFGLDGGQPGPGEGLPRLVSRGAASLSTVTLGPVAPPATPPPWGCPLGRLVSPAPGPGPQPHLVITEQPKQRGMRFRYECEGRSAGSILGESSTEASKTLPAIELRDCGGLREVEVTACLVWKDWPHRVHPHSLVGKDCTDGICRVRLRPHVSPRHSFNNLGIQCVRKKEIEAAIERKIQLGIDPYNAGSLKNHQEVDMNVVRICFQASYRDQQGQMRRMDPVLSEPVYDKKSTNTSELRICRINKESGPCTGGEELYLLCDKVQKEDISVVFSRASWEGRADFSQADVHRQIAIVFKTPPYEDLEIVEPVTVNVFLQRLTDGVCSEPLPFTYLPRDHDSYGVDKKRKRGMPDVLGELNSSDPHGIESKRRKKKPAILDHFLPNHGSGPFLPPSALLPDPDFFSGTVSLPGLEPPGGPDLLDDGFAYDPTAPTLFTMLDLLPPAPPHASAVVCSGGAGAVVGETPGPEPLTLDSYQAPGPGDGGTASLVGSNMFPNHYREAAFGGGLLSPGPEAT
notes: mature
B4: IκBα, endogenous (other, human, UniProt P25963 1-317, looked up)
chain: MFQAAERPQEWAMEGPRDGLKKERLLDDRHDSGLDSMKDEEYEQMVKELQEIRLEPQEVPRGSEPWKQQLTEDGDSFLHLAIIHEEKALTMEVIRQVKGDLAFLNFQNNLQQTPLHLAVITNQPEIAEALLGAGCDPELRDFRGNTPLHLACEQGCLASVGVLTQSCTTPHLHSILKATNYNGHTCLHLASIHGYLGIVELLVSLGADVNAQEPCNGRTALHLAVDLQNPDLVSLLLKCGADVNRVTYQGYSPYQLTWGRPSTRIQQQLGQLTLENLQMLPESEDEESYDTESEFTEFTEDELPYDDCVFGGQRLTL
notes: mature

Key:
[1] = molecular target: B3; assay: anti-RelB immunoprecipitation from nuclear extracts of Ramos cells, western blot
Description: (§1) FIG. 3g is an immunoprecipitation analysis with RelB of various NF-κB proteins from nuclear extracts of the Ramos cells, 15 minutes and 4 hours after the application of TNF or CD70 to the cells. Levels of p100, NS and p52 were detected by western blot analysis.
(§2) For immunoprecipitation of the NF-κB proteins, nuclear extracts from 10-20×10⁶ cells were diluted to achieve the following composition: 0.5% NP-40, 10 mM HEPES pH 7.9, 150 mM NaCl, 1 mM EDTA, 1 mM EGTA, 1 mM dithiothreitol (DTT), 1 mM PMSF, and 1× complete protease inhibitor cocktail. Anti-RelB antibody preadsorbed to protein-A-Sepharose beads (Amersham Biosciences) was incubated with precleared nuclear lysates for 2 hours at 4° C. The immunoprecipitates were analyzed by SDS-PAGE using 4-12% Bis-Tris NuPAGE gels (Invitrogen), and the gels were subjected to western blotting as described above.

[2] = molecular target: T3, NIK 624-947 (C-terminal part of NIK), yeast two-hybrid construct (human, UniProt Q99558 624-947); assay: yeast two-hybrid, β-galactosidase colour assay in SFY526
T3 construct: Yeast two-hybrid construct used in the β-galactosidase assay in SFY526 yeast; also called C-terminally mutant (NIK 624-947); the C-terminal portion of NIK; not shown: Gal4 fusion partner from pGBKT7 or pGADT7
T3 sequence (Q99558 624-947): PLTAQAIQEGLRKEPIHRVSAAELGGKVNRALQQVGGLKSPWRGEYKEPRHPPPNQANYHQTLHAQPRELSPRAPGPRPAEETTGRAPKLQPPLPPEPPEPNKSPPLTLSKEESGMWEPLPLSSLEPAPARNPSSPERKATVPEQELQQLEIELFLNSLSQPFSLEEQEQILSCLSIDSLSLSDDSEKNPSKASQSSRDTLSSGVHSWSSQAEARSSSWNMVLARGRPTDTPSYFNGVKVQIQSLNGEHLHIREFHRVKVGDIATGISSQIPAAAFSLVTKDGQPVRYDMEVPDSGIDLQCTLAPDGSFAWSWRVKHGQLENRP
Description: FIG. 1a illustrates yeast two-hybrid binding assays of NIK to SIVA. The binding of NIK and its C-terminally mutant (NIK 624-947) to the C-terminal part of SIVA (amino acids 123-175 in SIVA1 or 58-110 in SIVA2) or TRAF2, was assessed using transformed SFY526 yeast. The development of a strong color reaction within 1 hour and 3 hours is indicted as ‘++’ and ‘+’, respectively; ‘−’ indicates no color development within 24 h.
A BamHI/XhoI digested NIK insert from the pcNIK vector was subcloned into BamHI/SalI sites of the Gal4 DNA-binding domain vector pGBKT7 (Clontech). A pre-transformed human bone marrow library (HL4053AH, Clontech) was subjected to two-hybrid screening using pGBKT7-NIK as the bait, according to the manufacturer's instructions (Yeast protocol handbook, Clontech—www.clontech.com) Positive clones were identified by quadruple selection and β-galactosidase activity assay. Binding of the SIVA clone to NIK and NIK624-947 was reconfirmed and binding of NIK to TRAF2 was assessed-by a β-galactosidase expression assay using the yeast SFY526 reporter strain (Clontech) and the pGBKT7 and pGADT7 vectors.

[3] = molecular target: T1, NF-κB2/p100, endogenous; assay: anti-RelB immunoprecipitation from nuclear extracts of Ramos cells, western blot
Description: as §1, §2

[4] = molecular target: T2, p55 TNF receptor, endogenous in Ramos …; assay: western blot of the p55 TNF receptor complex from Ramos cells (FIG. 6a)
Description: Transfections, immunoblotting and immunoprecipitations were performed as described in Example 2 and Example 3 of the Examples section. For immunoprecipitation of the CD70/CD27 ligand-receptor complexes from resting PBMC and Ramos cells, cell lysates were prepared as described for the kinase tests aforementioned and incubated for 4 hours at 4° C. with 25 μl of 50% M2-FLAG agarose beads per ml of lysate. The TNF-receptor complex was precipitated as described (Zhang et al., 2000). The signalosome from cell lysates was immunoprecipitated using a 1:1 mixture of two different antibodies against IKK1 (M-280 and H-744, Santa Cruz). Immunoprecipitation was allowed to continue for 2 hours at 4° C., using 10 μg of anti-IKKα antibodies adsorbed to 25 μl of 50% protein-A-Sepharose beads per ml of lysate.

Binder: B1
binding result [1]: binds

Binder: B2
binding result [2]: binds

Binder: B3
binding result [3]: binds

Binder: B4
binding result [4]: binds
